Paper PMC4737149, “The autoinhibitory CARD2-Hel2i Interface of RIG-I governs RNA selection”

Legend:
[1] = biological target: T1, RIG-I full length (wt) (human, UniProt O95786 1-925); assay: ATPase titration (Kd,app); ATP, 150 mM NaCl, 37 C; Buffer A (composition not in the material; 150 mM NaCl stated for some supplementary assays); anisotropy at 15 C with 1-2 nM (blunt) or 40 nM (non-blunt) labell; details: protein: recombinant, tags: N-terminal SUMO fusion construct, His (Ni-NTA)
T1 sequence: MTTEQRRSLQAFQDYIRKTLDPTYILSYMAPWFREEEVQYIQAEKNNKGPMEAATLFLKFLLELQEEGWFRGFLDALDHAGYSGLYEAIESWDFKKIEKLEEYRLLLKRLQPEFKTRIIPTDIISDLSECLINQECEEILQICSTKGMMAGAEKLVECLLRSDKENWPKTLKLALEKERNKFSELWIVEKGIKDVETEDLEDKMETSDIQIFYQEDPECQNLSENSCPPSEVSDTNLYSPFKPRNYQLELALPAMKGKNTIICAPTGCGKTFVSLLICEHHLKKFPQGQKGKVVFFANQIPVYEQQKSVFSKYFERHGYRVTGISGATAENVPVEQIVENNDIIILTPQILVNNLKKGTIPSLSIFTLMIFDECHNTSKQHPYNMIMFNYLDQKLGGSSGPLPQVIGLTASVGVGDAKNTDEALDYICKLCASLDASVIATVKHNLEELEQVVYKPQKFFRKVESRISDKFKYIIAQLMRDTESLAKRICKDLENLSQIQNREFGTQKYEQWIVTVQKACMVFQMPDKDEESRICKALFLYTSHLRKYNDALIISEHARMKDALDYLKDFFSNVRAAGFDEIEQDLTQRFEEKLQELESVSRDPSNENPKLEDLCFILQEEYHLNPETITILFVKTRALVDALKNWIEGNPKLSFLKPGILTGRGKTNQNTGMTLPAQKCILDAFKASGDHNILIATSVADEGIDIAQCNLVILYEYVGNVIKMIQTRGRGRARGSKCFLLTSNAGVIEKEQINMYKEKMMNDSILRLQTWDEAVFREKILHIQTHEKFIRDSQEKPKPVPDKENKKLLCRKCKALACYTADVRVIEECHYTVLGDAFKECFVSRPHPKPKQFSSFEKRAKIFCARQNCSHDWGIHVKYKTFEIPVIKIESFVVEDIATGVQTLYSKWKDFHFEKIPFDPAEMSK

[2] = biological target: T2, RIG-I R109A/L110A (CARD2-Hel2i interface mutant) (human, UniProt O95786 1-925, R109A;L110A); assay: ATPase titration (Kd,app); ATP, 15 C; Buffer A (composition not in the material; 150 mM NaCl stated for some supplementary assays); anisotropy at 15 C with 1-2 nM (blunt) or 40 nM (non-blunt) labell; details: protein: recombinant, tags: N-terminal SUMO fusion construct, His (Ni-NTA)
T2 sequence: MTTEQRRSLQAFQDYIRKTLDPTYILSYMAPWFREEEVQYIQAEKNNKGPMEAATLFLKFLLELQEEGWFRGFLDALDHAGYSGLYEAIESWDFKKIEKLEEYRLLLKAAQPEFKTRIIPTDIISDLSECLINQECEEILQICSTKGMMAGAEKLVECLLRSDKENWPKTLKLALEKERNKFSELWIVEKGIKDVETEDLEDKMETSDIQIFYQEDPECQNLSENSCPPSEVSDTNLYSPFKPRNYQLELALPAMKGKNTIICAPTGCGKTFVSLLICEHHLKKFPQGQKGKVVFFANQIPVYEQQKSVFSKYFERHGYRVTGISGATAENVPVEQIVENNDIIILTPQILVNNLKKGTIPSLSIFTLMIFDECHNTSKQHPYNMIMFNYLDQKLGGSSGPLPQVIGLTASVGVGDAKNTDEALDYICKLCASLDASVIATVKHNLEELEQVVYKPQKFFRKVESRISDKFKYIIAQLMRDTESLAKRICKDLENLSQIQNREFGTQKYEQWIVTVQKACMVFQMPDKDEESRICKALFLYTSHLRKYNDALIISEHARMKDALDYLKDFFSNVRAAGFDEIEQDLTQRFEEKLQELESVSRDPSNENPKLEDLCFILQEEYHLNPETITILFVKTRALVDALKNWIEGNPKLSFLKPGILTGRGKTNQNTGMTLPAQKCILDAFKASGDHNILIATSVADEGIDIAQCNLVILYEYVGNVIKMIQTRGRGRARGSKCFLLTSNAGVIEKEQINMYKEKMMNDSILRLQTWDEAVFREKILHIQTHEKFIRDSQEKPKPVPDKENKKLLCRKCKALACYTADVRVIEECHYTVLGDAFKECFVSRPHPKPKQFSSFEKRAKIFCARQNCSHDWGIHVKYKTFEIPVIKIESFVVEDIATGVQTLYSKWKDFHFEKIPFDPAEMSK

[3] = biological target: T3, Helicase-RD (RIG-I lacking CARDs) (human, UniProt O95786 232-925); assay: as above; details: protein: recombinant, tags: N-terminal SUMO fusion construct, His (Ni-NTA)
T3 sequence: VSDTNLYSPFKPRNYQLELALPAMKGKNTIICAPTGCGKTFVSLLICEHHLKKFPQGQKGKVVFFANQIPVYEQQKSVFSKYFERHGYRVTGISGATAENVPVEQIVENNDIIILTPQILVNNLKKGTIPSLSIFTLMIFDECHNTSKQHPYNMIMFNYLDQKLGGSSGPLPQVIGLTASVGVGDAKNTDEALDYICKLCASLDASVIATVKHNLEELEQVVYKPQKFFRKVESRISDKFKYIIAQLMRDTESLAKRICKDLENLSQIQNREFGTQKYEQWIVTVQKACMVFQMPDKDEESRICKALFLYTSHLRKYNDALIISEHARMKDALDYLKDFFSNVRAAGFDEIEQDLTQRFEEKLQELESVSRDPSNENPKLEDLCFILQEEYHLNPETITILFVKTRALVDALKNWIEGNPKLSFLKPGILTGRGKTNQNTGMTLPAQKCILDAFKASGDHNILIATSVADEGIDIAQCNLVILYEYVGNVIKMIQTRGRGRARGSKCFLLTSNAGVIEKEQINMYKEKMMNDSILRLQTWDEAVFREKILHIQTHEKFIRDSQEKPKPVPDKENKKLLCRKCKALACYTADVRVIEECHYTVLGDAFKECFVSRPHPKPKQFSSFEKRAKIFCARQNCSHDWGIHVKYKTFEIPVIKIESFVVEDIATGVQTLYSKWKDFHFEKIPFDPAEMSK

[4] = biological target: T1, RIG-I full length (wt); assay: fluorescence anisotropy; no ATP, 15 C; Buffer A (composition not in the material; 150 mM NaCl stated for some supplementary assays); anisotropy at 15 C with 1-2 nM (blunt) or 40 nM (non-blunt) labell; details: protein: recombinant, tags: N-terminal SUMO fusion construct, His (Ni-NTA)
[5] = biological target: T3, Helicase-RD (RIG-I lacking CARDs); assay: stopped-flow kinetics (koff/kon); 15 C; koff 1.5e-3 s-1, kon 6e8 M-1 s-1; Buffer A (composition not in the material; 150 mM NaCl stated for some supplementary assays); anisotropy at 15 C with 1-2 nM (blunt) or 40 nM (non-blunt) labell; details: protein: recombinant, tags: N-terminal SUMO fusion construct, His (Ni-NTA), none in ATPase assays
[6] = biological target: T1, RIG-I full length (wt); assay: ATPase titration (Kd,app); ATP, 15 C; same as Kd without ATP; Buffer A (composition not in the material; 150 mM NaCl stated for some supplementary assays); anisotropy at 15 C with 1-2 nM (blunt) or 40 nM (non-blunt) labell; details: protein: recombinant, tags: N-terminal SUMO fusion construct, His (Ni-NTA), none in ATPase assays
[7] = biological target: T3, Helicase-RD (RIG-I lacking CARDs); assay: ATPase titration (Kd,app); ATP, 37 C; Buffer A (composition not in the material; 150 mM NaCl stated for some supplementary assays); anisotropy at 15 C with 1-2 nM (blunt) or 40 nM (non-blunt) labell; details: protein: recombinant; tags: N-terminal SUMO fusion construct, His (Ni-NTA); single strand
[8] = biological target: T1, RIG-I full length (wt); assay: as above; details: protein: recombinant, tags: N-terminal SUMO fusion construct, His (Ni-NTA)
[9] = biological target: T4, RIG-I C-terminal repressor domain (RD) (human, UniProt O95786 801-925); assay: fluorescence anisotropy; no ATP, 15 C; Buffer A (composition not in the material; 150 mM NaCl stated for some supplementary assays); anisotropy at 15 C with 1-2 nM (blunt) or 40 nM (non-blunt) labell; details: protein: recombinant; tags: N-terminal SUMO fusion construct, His (Ni-NTA); label: fluorescein on strand 2 in fluorescence assays; 3' overhangs 2 nt at both ends, 8 bp
T4 sequence: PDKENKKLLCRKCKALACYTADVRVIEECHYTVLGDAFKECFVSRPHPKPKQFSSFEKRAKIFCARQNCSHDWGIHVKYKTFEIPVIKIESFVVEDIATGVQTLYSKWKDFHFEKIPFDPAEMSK

[10] = biological target: T1, RIG-I full length (wt); assay: ATPase titration (Kd,app); ATP, 15 C; Buffer A (composition not in the material; 150 mM NaCl stated for some supplementary assays); anisotropy at 15 C with 1-2 nM (blunt) or 40 nM (non-blunt) labell; details: protein: recombinant; tags: N-terminal SUMO fusion construct, His (Ni-NTA); label: fluorescein on strand 2 in fluorescence assays; 3' overhangs 2 nt at both ends, 8 bp
[11] = biological target: T1, RIG-I full length (wt); assay: as above; details: protein: recombinant, tags: N-terminal SUMO fusion construct, His (Ni-NTA), label: fluorescein on strand 2 in fluorescence assays (5' for anisotropy, 3' for intensity), none in ATPase assays
[12] = label: 5' fluorescein on strand 2 in fluorescence assays, 5' overhangs 2 nt at both ends, 8 bp
[13] = label: fluorescein on strand 2 in fluorescence assays, 3' overhangs 2 nt at both ends, 8 bp
[14] = hairpin with 5-nt U overhangs at both 5' and 3' ends
[15] = label: fluorescein on strand 2 in fluorescence assays (5' for anisotropy, 3' for intensity), none in ATPase assays, blunt

B1: 5'ppp RNA 3'F (dsRNA)
RNA 1: CGUGAGACAU
RNA 2: AUGUCUCACG
modifications: 5'-triphosphate on strand 1
[1]; label: 3' fluorescein on strand 2
  Kd: 73 ± 18 nM

B2: 5'ppp 5'ovg RNA (dsRNA)
RNA 1: CGUGAGACAU
RNA 2: UCAUGUCUCA
modifications: 5'-triphosphate on strand 1
[2]; [12]
  Kd: 43 ± 5 nM
[3]; [12]
  Kd: ~0.1 nM

B3: 5'OH 5'ovg RNA (dsRNA)
RNA 1: CGUGAGACAU
RNA 2: UCAUGUCUCA
[2]; [12]
  Kd: 64 ± 7 nM
[3]; [12]
  Kd: ~1.5 nM
[4]; [12]
  Kd: ~450 nM

B4: 5'ppp RNA (10-bp blunt) (dsRNA)
RNA 1: CGUGAGACAU
RNA 2: AUGUCUCACG
modifications: 5'-triphosphate on strand 1
[2]; none in ATPase assays, blunt
  Kd: 0.1 ± 0.1 nM
[4]; none in ATPase assays, blunt
  Kd: 0.4 ± 0.2 nM
[1]; none in ATPase assays
  Kd: 90 ± 29 nM
[5]
  Kd: 0.0025 nM
[6]
  binding signal: 1 fold Kd,app/Kd without ATP

## CGUGAGACAU (ssRNA) [5'OH ss10 RNA]
[7]
  Kd: 1600 ± 500 nM

B5: 5'OH 3'ovg RNA (dsRNA)
RNA 1: CGUGAGACAU
RNA 2: GUCUCACGUA
[2]; [13]
  Kd: 121 ± 14 nM
[3]; [13]
  Kd: ~1.5 nM

## UUUUUGAAUAUAAUAGUGAUAUUAUAUUCUUUUU (structured_RNA) [dsRNA stem (hairpin with two overhangs)]
[2]; [14]
  Kd: 53 ± 9 nM
[3]; [14]
  Kd: 0.6 ± 0.4 nM
[8]; [14]
  Kd: 629 ± 165 nM
[4]; [14]
  Kd: ~450 nM

## GAAUAUAAUAGUGAUAUUAUAUUC (structured_RNA, 5'-triphosphate) [5'ppp HP]
[8]; hairpin, blunt
  Kd: 6 ± 0.7 nM

## GAAUAUAAUAGUGAUAUUAUAUUC (structured_RNA) [5'OH HP]
[8]; hairpin, blunt
  Kd: 39 ± 4 nM

## CGUGAGACAU (ssRNA, 5'-triphosphate) [5'ppp ss10 RNA]
[7]
  Kd: 500 ± 100 nM

B6: 5'ppp 3'ovg RNA (dsRNA)
RNA 1: CGUGAGACAU
RNA 2: GUCUCACGUA
modifications: 5'-triphosphate on strand 1
[2]; [13]
  Kd: 16 ± 4 nM
[3]; [13]
  Kd: ~0.1 nM
[9]
  Kd: 165 ± 2 nM
[4]; [13]
  Kd: 3 ± 0.4 nM
[10]
  binding signal: ~16 fold Kd,app/Kd without ATP

B7: 5'OH RNA (10-bp blunt) (dsRNA)
RNA 1: CGUGAGACAU
RNA 2: AUGUCUCACG
[2]; [15]
  Kd: 0.2 ± 0.3 nM
[3]; [15]
  Kd: 0.07 nM
[4]; [15]
  Kd: 6 ± 0.4 nM
[11]
  binding signal: ~2.5 fold Kd,app/Kd without ATP
